Test results reported in US20140193915, “COMPOSITIONS AND METHODS FOR CUSTOM SITE-SPECIFIC DNA RECOMBINASES” (Monsanto Technology, LLC, published 2014).
Positions count from the first letter of the chain named.

T1: sN-TALER N4.2.2 (synthetic)
T1 chain: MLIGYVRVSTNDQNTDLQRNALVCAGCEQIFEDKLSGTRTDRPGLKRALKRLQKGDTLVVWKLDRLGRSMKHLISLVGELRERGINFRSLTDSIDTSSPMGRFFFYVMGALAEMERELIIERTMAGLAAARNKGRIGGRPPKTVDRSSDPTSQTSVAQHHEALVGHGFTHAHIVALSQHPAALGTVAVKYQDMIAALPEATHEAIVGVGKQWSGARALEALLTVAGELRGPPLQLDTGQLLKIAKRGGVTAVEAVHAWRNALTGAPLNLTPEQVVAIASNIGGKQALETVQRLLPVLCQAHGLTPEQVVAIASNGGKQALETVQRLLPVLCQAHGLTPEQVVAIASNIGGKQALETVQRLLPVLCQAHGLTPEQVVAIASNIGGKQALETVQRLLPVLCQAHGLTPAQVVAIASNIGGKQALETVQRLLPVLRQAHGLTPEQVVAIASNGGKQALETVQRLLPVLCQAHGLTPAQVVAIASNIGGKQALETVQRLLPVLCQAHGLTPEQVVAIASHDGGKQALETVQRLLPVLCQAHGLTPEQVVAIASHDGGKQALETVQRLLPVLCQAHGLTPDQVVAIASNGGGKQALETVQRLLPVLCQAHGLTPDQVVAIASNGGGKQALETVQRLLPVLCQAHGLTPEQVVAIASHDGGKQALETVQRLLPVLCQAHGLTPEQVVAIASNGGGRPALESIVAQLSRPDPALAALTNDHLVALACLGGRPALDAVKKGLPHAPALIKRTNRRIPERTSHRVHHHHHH

T2: pN-TALER IV-5-EE2 (synthetic)
T2 chain: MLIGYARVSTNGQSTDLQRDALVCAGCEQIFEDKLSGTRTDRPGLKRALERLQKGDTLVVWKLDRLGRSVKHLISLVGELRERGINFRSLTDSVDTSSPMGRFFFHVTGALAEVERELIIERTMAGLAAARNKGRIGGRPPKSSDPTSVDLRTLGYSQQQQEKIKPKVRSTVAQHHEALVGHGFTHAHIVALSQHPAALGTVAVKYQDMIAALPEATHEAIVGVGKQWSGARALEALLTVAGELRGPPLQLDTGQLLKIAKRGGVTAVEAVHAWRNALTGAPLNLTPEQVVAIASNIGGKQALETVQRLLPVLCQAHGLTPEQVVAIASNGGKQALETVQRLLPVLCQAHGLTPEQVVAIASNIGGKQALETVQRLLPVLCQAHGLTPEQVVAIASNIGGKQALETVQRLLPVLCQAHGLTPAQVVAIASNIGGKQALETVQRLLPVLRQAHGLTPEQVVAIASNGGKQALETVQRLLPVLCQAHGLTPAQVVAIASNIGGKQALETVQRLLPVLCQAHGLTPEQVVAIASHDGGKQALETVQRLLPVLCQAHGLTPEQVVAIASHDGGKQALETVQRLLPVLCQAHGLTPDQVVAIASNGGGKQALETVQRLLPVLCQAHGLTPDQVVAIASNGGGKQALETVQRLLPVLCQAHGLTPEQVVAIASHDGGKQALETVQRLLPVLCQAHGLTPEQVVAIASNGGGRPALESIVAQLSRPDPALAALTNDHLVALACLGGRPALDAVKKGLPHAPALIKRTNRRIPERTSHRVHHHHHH

B1: Gin18TALE+1 (dsDNA)
DNA 1: AGAAGGTATTTATATCCAAAACCATGGTTTACAATATAAATACCTTCT
DNA 2: B1 DNA 1 with C16T, C17G, A18T, A31T, C32G, A33G
B2: Gin20TALE+0 (dsDNA)
DNA 1: B1 DNA 1 with A34G
DNA 2: AGAAGGTATTTATACTGTAAACCATGGTTTTGGATATAAATACCTTCT

Columns and labels:
sN-TALER N4.2.2 = biological target: T1, sN-TALER N4.2.2; test: cell_activity; E. coli
Procedure: The co-transformed bacteria were plated on media with chloramphenicol, kanamycin, and X-gal then incubated at 37° C. for 18 to 36 hours. Control samples consisted of transformations using the reporter construct alone. Control transformants were similarly plated. The bacterial transformation protocol was either heat shock or electroporation per standard molecular biology techniques.
For each of these N-TALER chimera expression constructs, from one to three independent clones were selected for plasmid purification. These N-TALER chimera expression constructs were co-transformed with five of the N-TALER reporter constructs, as indicated in Table 15. […] In contrast to the result for pN-TALER N4.2.2, the chimera sN-TALER N4.2.2, with the same truncation point but a specific recombinase catalytic domain, reporters with 20, 24, or 40 bp of TALER central sequence length were efficiently recombined (score of 1) while reporters with 30 or 50 bp of TALER central sequence length were not recombined (score of 5). For the chimera sN-TALER N4.2, reporters with 20, 24, or 40 bp of TALER central sequence length were efficiently recombined (score of 1); the reporter with 30 bp of TALER central sequence length was poorly recombined (score of 3); and the reporter with 50 bp of TALER central sequence length was not recombined (score of 5). For the chimera pN-TALER N4.2, the recombination efficiency on the reporters tested varied from intermediate (scores of 3 and 4) to none (score of 5). […] In contrast to the result for sN-TALER N3.2, the chimera pN-TALER N3.2, with the same truncation point but a permissive recombinase catalytic domain, recombination efficiency on the reporters tested varied from efficient (scores of 1.5, 2, and 3) to none (score of 5). For both chimeras sN-TALER V.2 and pN-TALER V.2, there was efficient recombination (scores of 1, 1.5, and 2) of the 5 N-TALER reporter constructs tested.

pN-TALER IV-5-EE2 = biological target: T2, pN-TALER IV-5-EE2; test: cell_activity; E. coli; conditions: tags: 6-His

Binder	activity (sN-TALER N4.2.2) [score]	activity (pN-TALER IV-5-EE2) [score]
B1	1	
B2		1
